Consider four molecules from patent US20260242489A1 (HUAHUI HEALTH, published 2026).

Assay [1] has as its target T1, human EGFR, full-length, on A-431 cells or CT26-hEGFR cells (human, UniProt P00533 25-1210).
T1 construct: A-431 cells (own EGFR) and mouse CT26 cells transfected with human EGFR; the cell line is named under assay
Nature of the assay: flow cytometry on A-431 cells. For orientation: In flow cytometry, cells or beads pass a laser one at a time.
Procedure: (§1) Antibody binding to cells was then assessed based on the fluorescence intensity for FITC.

In assay [2] the target is T1, human EGFR, full-length, on A-431 cells …. In words: flow cytometry on CT26-hEGFR cells.
Procedure: as §1
Assay [3] shares this target. Nature of the assay: flow cytometry on A-431 cells, pH 6.5.
Procedure: as §1
The target is the same in assay [4]. Nature of the assay: flow cytometry on A-431 cells, pH 7.4.
Procedure: as §1
Assay [5] concerns the target T2, hEGFR ECR-His6-Avi-Biotin (human, UniProt P00533 25-642, biotinylated on the Avi tag using BirA ligase).
T2 construct: also called WT hEGFR ECR; human EGFR ECD; not shown: His6-Avi tag
Nature of the assay: IgG1 ELISA on hEGFR ECR, pH 6.5 and pH 7.4.

Assay [6] addresses T1, human EGFR, full-length, on A-431 cells …. Nature of the assay: flow cytometry on CT26-hEGFR cells, pH 6.5.
Procedure: as §1
Assay [7] has the same target. In words: flow cytometry on CT26-hEGFR cells, pH 7.4.
Procedure: as §1
Assay [8] has as its target T2, hEGFR ECR-His6-Avi-Biotin. In words: SPR (Biacore T200), hEGFR ECR analyte, steady-state affinity model. For orientation: Surface plasmon resonance follows binding to a sensor surface in real time, without labels.
Procedure: (§2) Kinetics analyses of the binding of anti-EGFR antibodies to the ECR of mouse and human EGFR were performed on a Biacore T200 instrument (Biacore, GE Healthcare). Anti-hFc Ab or protein A/G (Thermo Fisher Scientific) was covalently attached to the surface of a CM5 sensor chip using an amine coupling kit (GE Healthcare). […] Binding kinetics were evaluated using a 1:1 Langmuir binding model. The dissociation constant (KD) values were calculated with a steady-state affinity model using the Biacore T200 evaluation software.
Assay [9] has as its target T3, mEGFR ECR (His6-Avi-tagged) (mouse, UniProt Q01279 25-644).
T3 construct: also called mouse EGFR; not shown: His6-Avi tag
In words: SPR (Biacore T200), mEGFR ECR analyte, steady-state affinity model.

Assay [10] has as its target T2, hEGFR ECR-His6-Avi-Biotin. In words: ELISA: hEGFR ECR on plate, IgG1 titrated, anti-hFc-HRP; pH 6.5 [table]. On the technique in general: ELISA stands for enzyme-linked immunosorbent assay.
The target in assay [11] is T2, hEGFR ECR-His6-Avi-Biotin. In words: ELISA: hEGFR ECR on plate, IgG1 titrated, anti-hFc-HRP; pH 7.4 [table].
Assay [12] concerns the target T2, hEGFR ECR-His6-Avi-Biotin. In words: SPR (Biacore T200), antibody captured, hEGFR ECR analyte, steady-state affinity model, pH 6.5.
Procedure: as §2
In assay [13] the target is T2, hEGFR ECR-His6-Avi-Biotin. In words: SPR (Biacore T200), antibody captured, hEGFR ECR analyte, steady-state affinity model, pH 7.4.
Procedure: as §2
Assay [14] deals with T3, mEGFR ECR (His6-Avi-tagged). In words: SPR (Biacore T200), antibody captured, mEGFR ECR analyte, steady-state affinity model, pH 6.5.
Procedure: as §2
Assay [15] shares this target. Nature of the assay: SPR (Biacore T200), antibody captured, mEGFR ECR analyte, steady-state affinity model, pH 7.4.
Procedure: as §2
Assay [16] has as its target T2, hEGFR ECR-His6-Avi-Biotin. Nature of the assay: competition ELISA: hEGFR ECR on plate, IgG1 titrated in a mixture with EGF-mFc, bound EGF-mFc detected with anti-mFc-HRP; pH 6.5 [table].
Assay [17] concerns the target T2, hEGFR ECR-His6-Avi-Biotin. In words: competition ELISA: hEGFR ECR on plate, IgG1 titrated in a mixture with EGF-mFc, bound EGF-mFc detected with anti-mFc-HRP; pH 7.4 [table].
Assay [18] deals with T2, hEGFR ECR-His6-Avi-Biotin. In words: ELISA: hEGFR ECR on plate, IgG1 titrated, anti-hFc-HRP; pH 6.0 [right panel].
Source text: (§3) Then antibody-hEGFR binding was detected with an HRP-conjugated anti-hFc secondary antibody.
Assay [19] addresses T2, hEGFR ECR-His6-Avi-Biotin. Nature of the assay: ELISA: hEGFR ECR on plate, IgG1 titrated, anti-hFc-HRP; pH 7.4 [right panel].
Source text: as §3
For assay [20], the target named is T2, hEGFR ECR-His6-Avi-Biotin. In words: phage ELISA: biotinylated hEGFR ECR captured on streptavidin plate, phage display scFv titrated, anti-M13-HRP; pH 7.4.
For assay [21], the target named is T2, hEGFR ECR-His6-Avi-Biotin. Nature of the assay: phage ELISA: biotinylated hEGFR ECR captured on streptavidin plate, phage display scFv titrated, anti-M13-HRP; pH 6.0.

B1: G532^Ctrl (human IgG1 form) (antibody, V domains shown)
VH: QVQLVQSGAEVKRPGSSVKVSCKASGGISDGSAISWVRQAPGQGLEWMGGIRWWGGITNYAQKFQGRVTITADESTSTAYMELSSLRSEDTAVYYCARDSSLGYYDYFDYWGQGTLVTVSS
VL: QPVLTQPPSVSAAPGQTARITCGGNNIGENHVQWYQQRPGQAPVLVIYYDSTRPSGIPERFSGSNSGNTAALTINSVEAGDEADYYCQAWDDYDPVVFGGGTQLTVLG
notes: G532^V with LCDR1 K31N; also called non-pH-dependent variant of G532
For B1, the figures for the “EC50 ratio (pH 7.4/6.5)” value in assay [1] and in assay [2] were 0.718 and 0.469, respectively. Besides, the EC50 – broadly, the concentration giving half of the maximal effect – was found to be 0.771 nM in assay [3]; 0.554 nM in assay [4]; 1.25 nM in assay [6]; 0.587 nM in [7]; 0.837 nM in [10]; 0.635 nM in assay [11]. For the same molecule, in [5], the “EC50 ratio (pH 7.4/pH 6.5)” value was found to be 0.759. For the same molecule, the entries for the “KD ratio (pH 7.4/6.5)” value in assay [8] and in [9] were 0.599 and 0.586, respectively. The Kd (as a rule, the equilibrium constant for the complex coming apart) in assay [12] came to 406 nM; in assay [13], 243 nM; in [14] it was 1270 nM; in [15], 743 nM. The IC50 (usually the point on the concentration scale where inhibition reaches its midpoint) in assay [16] was found to be 39.5 nM; in [17], 61.8 nM.

B2: G532 (human IgG1 form) (antibody, V domains shown)
VH: QVQLVQSGAEVKRPGSSVKVSCKASGGISDGSAISWVRQAPGQGLEWMGGIRWWGGITNYAQKFQGRVTITADESTSTAYMELSSLRSEDTAVYYCARDSSLGYYDYFDYWGQGTLVTVSS
VL: QPVLTQPPSVSAAPGQTARITCGGNNIGEKEVQWYQQRPGQAPVLVIYYDDDRPSGIPERFSGSNSGNTAALTINSVEAGDEADYYCQAWDDYDPVVFGGGTQLTVLG
In the case of B2, the figures for the “EC50 ratio (pH 7.4/6.5)” value in assay [1] and in assay [2] were 26 and 19.4, respectively. The EC50 worked out at 0.528 nM in assay [3]; 13.7 nM in assay [4]; 0.787 nM in assay [6]; 15.2 nM in assay [7]; 0.69 nM in assay [10]; 5.58 nM in assay [11]. Besides, the “EC50 ratio (pH 7.4/pH 6.5)” value in [5] stood at 8.08. Further, the “KD ratio (pH 7.4/6.5)” value in assay [8] amounted to 13.3; in [9], 3.31. Further, the Kd in assay [12] was found to be 294 nM; in assay [13], 3900 nM; in assay [14], 547 nM; in assay [15], 1810 nM. Also, the IC50 in [16] came out at 20.6 nM.

B3: 11A10 (full-length human IgG1 form) (antibody, V domains shown)
VH: EVQLVQSGAEVKKPGESLMISCKGSGYSFTNHWIGWVRQMPGKGPEWMGIINPRDSDARYSPSFRGQVTFSVDRSTNTAYLQWTSLKPSDTGMYFCARRDIVVVPAATPSYYYYGMDVWGQGTTVTVSS
VL: DIQLTQSPSSLSASVGDSVTITCRPRQSSSRFVNWYQHKPGKAPKLLISNASDLQHGVPSRFSGRGAGTEFTLTIDSLQPDDVATYYCEQSYRFPHMFGQGTKVEIKR
B3: the results for the EC50 in assay [18] and in assay [19] were 1.36 nM and 58.9 nM, respectively.

B4: 11C04 (scFv, part only; not given: scFv linker, domain order, phage fusion, V domains shown, not shown: another chain or arm of the molecule; large carriers; small tags and cut ends)
VH: EVQLVQSGAEVKKPGASVKVSCKASGYTFTSYYMHWVRQAPGQGLEWMGIINPSGGSTSYAQKFQGRVTMTRDTSTSTVYMELSSLRSEDTAVYYCARDLEMAYYDILYGMDVWGQGTLVTVSS
VL: QSALTQPASVSGSAGQSITISCTGTTSDIGRYDYVSWYQQHPGQVPKLMIYDVSNRPSGVSDRFSGSKSGNTASLTISGLQTEDEADYYCSSYTTSGTRVFGGGTKLTVL
For the molecule B4, the EC50 (read off the curve) in assay [20] and in assay [21] was 1e+10 cfu/ml each time.
